According to PMC3352095, “Structure and function of FusB: an elongation factor G-binding fusidic acid resistance protein active in ribosomal translocation and recycling” (Open Biology, 2012):

How the values were obtained:
[1] = target: S. aureus elongation factor G (S. aureus) (UniProt P68790); assay: SEC; 2 nmol EF-G (wild-type or hybrid) with or without 4 nmol FusB (twofold excess) in 100 µl gel filtration buffer (20 mM Tris pH 7.8, 300 mM NaCl) on Superdex200 10/300; shift in elution volume of the EF-G peak as read-out; hybrid G also with 2.5-fold excess of FusB
[2] = target: S. aureus elongation factor G (S. aureus) (UniProt P68790)
[3] = target: S. aureus elongation factor G (S. aureus) (UniProt P68790); remark: listed apart in the source
[4] = target: S. aureus elongation factor G (S. aureus) (UniProt P68790); remark: listed apart in the source
S. aureus EF-G = target: T1, S. aureus EF-G (Staphylococcus aureus, UniProt P68790); assay: tripeptide (fMet-Phe-Phe) formation, quenched at […] s, HPLC; assay type: biochemical
T1 construct: gene fusA; full-length wild type, recombinant; assayed on E. coli 70S ribosomes with E. coli translation factors

**Q.** With FusB (natural protein) as the compound, how does the stoichiometry N [1] read?
**A.** 1

**Q.** And the rate of splitting of the post-termination complex by S. aureus EF-G and RRF (Rayleigh light scattering) with FA 10 µM and FusB 1 µM (0.15 s^-1 without FA; blocked with FA alone) [2]?
**A.** 0.02 s⁻¹

**Q.** What about the multiple- and single-round luciferase synthesis in a reconstituted E. coli transcription-translation system with S. aureus EF-G, FA 20 µM, FusB 1 µM; increase against the reactions with only FA [3] of the same compound?
**A.** < 5 fold

**Q.** What about the extent of tripeptide formation in 10 s with S. aureus EF-G, FA 150 µM (50 per cent with FA alone), FusB 1 µM [4] of the same compound?
**A.** 75 per cent

**Q.** `CC(=O)O[C@H]1C[C@@]2(C)[C@@H](C[C@@H](O)[C@H]3[C@@]4(C)CC[C@@H](O)[C@@H](C)[C@@H]4CC[C@@]32C)/C1=C(\CCC=C(C)C)C(=O)O` [FA, fusidic acid] was tested. Which inhibition at 150 µM (S. aureus EF-G) did it give?
**A.** 50%
